Target: T1, PRMT-5His6 (C. elegans, UniProt P46580 1-734)
T1 construct: C. elegans protein arginine methyltransferase PRMT-5, open reading frame C34E10.5, a protein of 734 amino acids; cDNA of prmt-5 cloned into pET21a; also called purified PRMT-5His6 protein; recombinant PRMT-5
Experiment: pull-down; GST-CEP-1 or GST immobilised on glutathione sepharose beads, incubated with purified PRMT-5His6 for more than 2 h; bound PRMT-5His6 detected by immunoblot with anti-PRMT-5 antibody
Conditions: both partners purified

T1 sequence (P46580 whole entry): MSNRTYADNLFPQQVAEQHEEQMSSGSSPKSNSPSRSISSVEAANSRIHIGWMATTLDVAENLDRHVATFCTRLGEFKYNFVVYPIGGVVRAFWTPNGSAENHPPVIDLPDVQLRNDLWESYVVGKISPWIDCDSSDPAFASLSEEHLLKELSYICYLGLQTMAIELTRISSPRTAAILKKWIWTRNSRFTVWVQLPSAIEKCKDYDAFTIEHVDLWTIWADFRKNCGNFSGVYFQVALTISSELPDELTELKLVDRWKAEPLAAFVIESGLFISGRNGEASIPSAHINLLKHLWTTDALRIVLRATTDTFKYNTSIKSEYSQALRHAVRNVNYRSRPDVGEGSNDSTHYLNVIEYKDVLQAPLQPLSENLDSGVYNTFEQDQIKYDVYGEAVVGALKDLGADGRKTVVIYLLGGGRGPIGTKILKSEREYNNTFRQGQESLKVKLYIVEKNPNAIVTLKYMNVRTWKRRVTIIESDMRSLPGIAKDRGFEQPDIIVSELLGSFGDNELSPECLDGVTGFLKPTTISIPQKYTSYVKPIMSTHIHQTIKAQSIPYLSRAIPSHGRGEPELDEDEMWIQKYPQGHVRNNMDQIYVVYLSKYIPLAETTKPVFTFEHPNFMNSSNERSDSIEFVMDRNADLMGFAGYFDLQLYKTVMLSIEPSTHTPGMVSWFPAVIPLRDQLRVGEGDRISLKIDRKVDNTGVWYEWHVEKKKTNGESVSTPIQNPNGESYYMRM

binding result: binds
B1: GST-CEP-1 (natural protein, C. elegans, UniProt Q20646 1-644, looked up)
chain: MEPDDSQLSDILKDARIPDSQDIGVNLTQNLSFDTVQKMIDGVFTPIFSQGTEDSLEKDILKTPGISTIYNGILGNGEETKKRTPKISDAFEPDLNTSGDVFDSDKSEDGLMNDESYLSNTTLSQVVLDSQKYEYLRVRTEEEQQLVIEKRARERFIRKSMKIAEETALSYENDGSRELSETMTQKVTQMDFTETNVPFDGNDESSNLAVRVQSDMNLNEDCEKWMEIDVLKQKVAKSSDMAFAISSEHEKYLWTKMGCLVPIQVKWKLDKRHFNSNLSLRIRFVKYDKKENVEYAIRNPRSDVMKCRSHTEREQHFPFDSFFYIRNSEHEFSYSAEKGSTFTLIMYPGAVQANFDIIFMCQEKCLDLDDRRKTMCLAVFLDDENGNEILHAYIKQVRIVAYPRRDWKNFCEREDAKQKDFRFPELPAYKKASLESINIKQEVNLENMFNVTNTTAQMEPSTSYSSPSNSNNRKRFLNECDSPNNDYTMMHRTPPVTGYASRLHGCVPPIETEHENCQSPSMKRSRCTNYSFRTLTLSTAEYTKVVEFLAREAKVPRYTWVPTQVVSHILPTEGLERFLTAIKAGHDSVLFNANGIYTMGDMIREFEKHNDIFERIGIDSSKLSKYYEAFLSFYRIQEAMKLPK
notes: C. elegans p53 homolog CEP-1; called the full-length GST-CEP-1 fusion protein; pGEX vectors put GST at the N-terminus; also called GST-CEP-1 fusion protein; full-length GST-CEP-1

— publication PMC2691592, “Caenorhabditis elegans Protein Arginine Methyltransferase PRMT-5 Negatively Regulates DNA Damage-Induced Apoptosis” (PLoS Genetics, 2009)
